B1: WEE1 (parent)
chain: FLGSSFSPVRCGGPGDASPRGCGA
B2: DCAF4 (parent)
chain: DSHILLCLMGLAETPGCATLLPAS

Variants of: B1
Assay: protein stability index of a GFP-peptide fusion (GPS, HEK-293T) (PSI 1-6); higher = more stable
Settings: c terminus: a fixed tail appended
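Also: lentivirally expressed fusions sorted by FACS into six bins by GFP to DsRed ratio, PSI derived from sequencing read proportions per bin multiplied by bin number.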

Protein stability index: each site, then its substitutions
G15: F 2.6; C 1.25; H 1.76; A 2.45; D 2.06; I 1.82; E 1.59; K 1.93
G3: F 2.67; D 2.02; N 1.32; H 2.85; L 1.65; R 2.34; T 1.48; A 2.19; I 2.82; M 1.68; E 2.58; S 1.92; K 2.16; C 1.91; Y 1.91; W 2.79; P 2.12; V 2.51; Q 2.33
V9: K 1.93; I 1.8; E 2.79; T 1.88; A 2.11; D 2.58; Y 1.25; P 2.58; N 2.51; M 2.69; G 2.25; L 1.1; R 2.39; W 2.19; S 1.88; H 2.22; Q 1.76; C 3.15
P8: S 2.51; Y 1.78; W 2.83; A 1.38; Q 1.64; N 2.05; G 1.81; V 1.97; T 1.43; M 1.85; E 2.23; K 1.66; F 2.49; D 1.97; H 1.71; R 1.48; L 2.15; I 1.23
R10: I 2.25; C 1.73; T 2.25; S 1.8; Y 1.07; H 2.63; K 2.68; D 2.68; E 3.27; A 1.83; G 1.42; P 2.04; V 2; M 1.64; Q 1.84; L 2.52; N 2.33; W 4.78; F 2.95
S5: R 1.63; Y 2.51; D 2.37; Q 1.58; N 1.92; E 1.52; F 4.63; A 1.98; V 1.39; K 1.8; P 2.17; M 2.27; G 1.91; T 1.59; H 1.73; I 1.92; L 2.13
L2: F 2.51; G 1.93; P 2.04; Q 1.85; S 3.18; K 3.1; C 1.95; A 2.06; E 3.41; D 3.37; H 2.02; N 2.45; R 3.13; W 2.35; Y 2.19; M 2.07; T 1.6
G12: K 2.31; P 2.38; I 1.3; N 2.56; S 2; E 2.03; V 1.43; Y 2.65; C 2.04; H 3.11; D 1.85; A 1.78; R 2.1; Q 2.07; L 2.44; T 1.63; F 1.43; W 1.9; M 1.83
G13: Q 2.98; I 2.43; H 1.87; M 1.58; S 2.29; T 1.55; W 1.56; Y 1.63; E 1.52; C 2.58; D 1.57; R 1.87; A 1.94; F 1.51; N 2.38; P 2.12; L 2.58; K 2.29; V 2.05
S7: A 1.4; Q 1.93; E 2.5; V 1.03; M 2.48; R 2.38; C 2.41; L 1.48; N 2.22; I 2.34; D 3.47; Y 2.16; F 1.12; K 2.47; P 1.36; T 2.9; G 2.73; H 1.81
C11: H 2.1; Y 2.01; M 2.4; L 2.22; I 2.12; F 2.19; V 1.95; Q 2.48; E 2.39; R 2.69; N 2.53; S 2.62; W 1.46; G 2.34; D 3.3; T 2.27; P 2.44; K 1.91; A 2.78
F6: Y 1.81; L 2.84; N 3.06; E 3.91; R 2.95; D 3.42; P 3.52; G 3.36; C 3.15; S 2.87; M 3.29; A 2.17; I 3.26; T 2.76; K 3; H 2.48; Q 3.41; V 2.15
F1: P 3.4; D 2.95; I 2.72; C 2.82; T 2.82; M 2.29; S 2.87; L 2.56; V 3.77; A 2.89; G 3.25; R 2.46; W 2.16; Q 3.36; Y 1.87; H 3.26; N 2.48; K 2.95
S4: F 1.93; M 2.06; I 2.49; N 2.07; H 1.24; V 1.46; Y 1.75; P 1.82; R 1.69; K 2.34; L 1.48; A 1.79; D 2.39; Q 1.86; T 1.56; C 2.19; E 2.65; G 2.16
P14: C 2.18; W 1.94; S 2.24; A 1.45; T 1.15; Q 2.42; E 2.22; I 2.29; G 2.04; V 1.35; N 1.85; D 1.9; Y 2.42; L 1.59; F 3.56; R 2.35; M 1.17; H 1.86; K 2.81

Variants of: B2
Assay: as above
Settings: c terminus: a fixed tail appended

Protein stability index: each site, then its substitutions
S24: C 4.56; A 1.39; R 2.1; Y 2.91; I 2.82; E 1.74; D 1.92; W 2.76; T 3.75; N 2.69; P 2.36
L20: E 1.9; Y 3.25; G 2.44; F 3.14; D 2.36; K 2.4; N 2.9; V 2.36; Q 1.93; H 2.36; P 2; S 2.54; T 2.07; I 2.38; C 2.91; M 2.52; A 3.72; R 2.34
P22: R 3.03; H 3.65; A 3.01; G 2.29; K 3.2
L21: T 2.04; S 1.65; E 1.72; G 2.21; A 3.11; F 3.52; H 4.41; D 1.71; N 3.01; V 2.17; W 2.8; P 2.25
A23: I 3.11; Q 2.72; M 1.66; T 2.42; N 3.13; C 1.89; V 1.49; G 2.37; Y 1.75; R 3.3; L 1.69; E 3.69; P 1.79; D 2.79; F 3.27; H 1.66
T19: S 2.67; Q 1.43; M 3.1; R 1.64; W 2.05; P 2.5; N 2.42; Y 3.13

From the supplement of paper PMC10567573
